This is an account of results in patent US20240093158A1 (ARIZONA BOARD OF REGENTS ON BEHALF OF ARIZONA STATE …, published 2024).

In this assay the target is T1, CD16 on human natural killer (NK) cells (human, UniProt P08637 17-254).
T1 construct: whole, on cells
The assay can be described thus: flow cytometry on human NK cells, BiKE-containing supernatant, PE anti-V5 detection. A general note: In flow cytometry, cells or beads pass a laser one at a time.

T1 sequence (P08637 17-254): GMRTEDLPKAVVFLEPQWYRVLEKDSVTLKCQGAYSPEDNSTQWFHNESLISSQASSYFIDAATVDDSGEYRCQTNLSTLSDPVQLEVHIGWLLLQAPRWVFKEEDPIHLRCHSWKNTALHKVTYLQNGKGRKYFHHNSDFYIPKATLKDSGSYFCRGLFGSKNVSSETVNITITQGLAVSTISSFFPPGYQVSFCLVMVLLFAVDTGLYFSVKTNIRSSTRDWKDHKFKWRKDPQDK

B1: Bi-specific Natural Killer and Neutrophil engager (BiKE), CD138-CD16, secreted from MYXV-BiKE-infected cells, with C-terminal V5 tag (bispecific antibody)
chain: DIQMTQSTSSLSASLGDRVTISCSASQGINNYLNWYQQKPDGTVELLIYYTSTLQSGVPSRFSGSGSGTDYSLTISNLEPEDIGTYYCQQYSKLPRTFGGGTKLEIKGGGGSGGGGSGGGGSSQVQLQQSGSELMMPGASVKISCKATGYTFSNYWIEWVKQRPGHGLEWIGEILPGTGRTIYNEKFKGKATFTADISSNTVQMQLSSLTSEDSAVYYCARRDYYGNFYYAMDYWGQGTSVTVSSGGGGSGGGGSQVTLKESGPGILQPSQTLSLTCSFSGFSLRTSGMGVGWIRQPSGKGLEWLAHIWWDDDKRYNPALKSRLTISKDTSSNQVFLKIASVDTADTATYYCAQINPAWFAYWGQGTLVTVSAGGGGSGGGGSGGGGSDTVLTQSPASLAVSLGQRATISCKASQSVDFDGDSFMNWYQQKPGQPPKLLIYTTSNLESGIPARFSASGSGTDFTLNIHPVEEEDTATYYCQQSNEDPYTFGGGTKLEIKGKPIPNPLLGLDST
notes: Tested as secreted protein in supernatants of MYXV-BiKE-infected RK13 or Vero cells and detected through its V5 tag; Concentration was not determined; also called huBiKE; CD138-CD16 BiKE
As for B1, the binding result is on record as “binds”.
